One assay concerns the target HLA-B*39:01. As to the kind of experiment: IEDB peptide-MHC binding, purified MHC/competitive/fluorescence; filed as Kd, often an IC50 or EC50 that approximates it; ≥ and ≤ were set here for values at or beyond the usual limits of such assays. Particulars: source organism: Burkholderia mallei ATCC 23344.
The next assay addresses HLA-A*69:01. The assay is described as above. Particulars: source organism: Burkholderia mallei ATCC 23344.
The target in assay [1] is HLA-A*01:01. Described as above. Particulars: source organism: Burkholderia mallei ATCC 23344.
For assay [2], the target named is HLA-B*08:01. The assay is described as above. Particulars: source organism: Burkholderia mallei ATCC 23344.
Another assay concerns the target HLA-B*38:01. As to the kind of experiment: IEDB peptide-MHC binding, purified MHC/direct/fluorescence; filed as Kd, often an IC50 or EC50 that approximates it; ≥ and ≤ were set here for values at or beyond the usual limits of such assays. Particulars: source organism: Burkholderia mallei ATCC 23344.
Assay [3] has as its target HLA-A*11:01. The assay is described as above. Particulars: source organism: Burkholderia mallei.
For a further assay, the target named is HLA-B*27:05. The assay is described as above. Particulars: source organism: Burkholderia mallei.
For assay [4], the target named is HLA-A*31:01. The description is as above. Particulars: source organism: Burkholderia mallei.
The target of another assay is HLA-B*48:01. Described as above. Particulars: source organism: Burkholderia mallei.
A further assay has as its target HLA-B*46:01. Described as above. Particulars: source organism: Burkholderia mallei.
A further assay deals with HLA-B*15:17. The assay is described as above. Particulars: source organism: Burkholderia mallei.
The target in another assay is HLA-B*15:01. The description is as above. Particulars: source organism: Burkholderia mallei.
Assay [5] deals with HLA-B*18:01. The assay is described as above. Particulars: source organism: Burkholderia mallei.
Assay [6] has as its target HLA-B*58:01. The description is as above. Particulars: source organism: Burkholderia mallei.
Another assay deals with HLA-B*15:09. The assay is described as above. Particulars: source organism: Burkholderia mallei ATCC 23344.
The target in another assay is HLA-A*26:01. The assay is described as above. Particulars: source organism: Burkholderia mallei ATCC 23344.
Assay [7] has as its target HLA-B*51:01. The description is as above. Particulars: source organism: Burkholderia mallei.
Assay [8] concerns the target HLA-B*07:02. Described as above. Particulars: source organism: Burkholderia mallei.
Assay [9] concerns the target HLA-A*02:01. The assay is described as above. Particulars: source organism: Burkholderia mallei.
In assay [10] the target is HLA-A*03:01. Described as above. Particulars: source organism: Burkholderia mallei.
The next assay addresses HLA-B*57:01. The description is as above. Particulars: source organism: Burkholderia mallei.
Another assay deals with HLA-B*40:01. The assay is described as above. Particulars: source organism: Burkholderia mallei.
Assay [11] addresses HLA-A*11:01. Description: IEDB peptide-MHC binding, purified MHC/competitive/fluorescence; ≥ and ≤ were set here for values at or beyond the usual limits of such assays. Particulars: source organism: Homo sapiens.
For a further assay, the target named is HLA-B*53:01. The description is as above. Particulars: source organism: Homo sapiens.
Assay [12] addresses HLA-A*31:01. Described as above. Particulars: source organism: Homo sapiens.
A further assay has as its target HLA-B*35:01. Described as above. Particulars: source organism: Homo sapiens.
The target in a further assay is HLA-B*37:01. The description is as above. Particulars: source organism: Homo sapiens.
The target in assay [13] is HLA-B*18:01. The description is as above. Particulars: source organism: Homo sapiens.
In a further assay the target is HLA-B*44:03. The description is as above. Particulars: source organism: Homo sapiens.
Assay [14] addresses HLA-B*58:01. The assay is described as above. Particulars: source organism: Homo sapiens.
The target of another assay is HLA-A*29:02. The description is as above. Particulars: source organism: Homo sapiens.
The target of the next assay is HLA-B*14:02. Described as above. Particulars: source organism: Homo sapiens.
The target of another assay is HLA-A*24:02. Described as above. Particulars: source organism: Homo sapiens.
Assay [15] concerns the target HLA-B*51:01. The description is as above. Particulars: source organism: Homo sapiens.
A further assay addresses HLA-A*68:02. The assay is described as above. Particulars: source organism: Homo sapiens.
For assay [16], the target named is HLA-B*07:02. The description is as above. Particulars: source organism: Homo sapiens.
In assay [17] the target is HLA-A*01:01. The description is as above. Particulars: source organism: Homo sapiens.
Assay [18] deals with HLA-A*02:01. Described as above. Particulars: source organism: Homo sapiens.
For assay [19], the target named is HLA-A*03:01. Described as above. Particulars: source organism: Homo sapiens.
The target of the next assay is HLA-B*40:02. The assay is described as above. Particulars: source organism: Homo sapiens.
In a further assay the target is HLA-A*25:01. The description is as above. Particulars: source organism: Homo sapiens.
Assay [20] addresses HLA-B*08:01. The assay is described as above. Particulars: source organism: Homo sapiens.

The source of these data is the Immune Epitope Database (IEDB).

pIC50, pKd: −log10 of the molar value.

What is called pKd is −log10 of the Kd, conventionally taken in molar units. Consider EPFSRRHPL, for which the pKd was 6.35 in the assay with HLA-B*39:01; 6.68 in the assay with HLA-A*69:01; 5.49 with HLA-A*01:01 [1]; 7.23 with HLA-B*08:01 [2]; at most 4.70 with HLA-B*38:01; at most 4.70 with HLA-A*11:01 [3]. The pKd with HLA-B*27:05 was at most 4.70; with HLA-A*31:01 [4] it was at most 4.70; with HLA-B*48:01, at most 4.70; in the assay with HLA-B*46:01 it was at most 4.70; with HLA-B*15:17, 6.44; with HLA-B*15:01, at most 4.70. The pKd in the assay with HLA-B*18:01 [5] is at most 4.70; in the assay with HLA-B*58:01 [6], at most 4.70; in the assay with HLA-B*15:09, at most 4.70; with HLA-A*26:01, at most 4.70; with HLA-B*51:01 [7], at most 4.70; in the assay with HLA-B*07:02 [8], 8.00. Also, the pKd in the assay with HLA-A*02:01 [9], with HLA-A*03:01 [10], in the assay with HLA-B*57:01 and with HLA-B*40:01 was at most 4.70 throughout.

Usually pIC50 stands for −log10 of the IC50, conventionally taken in molar units. Higher therefore signals a low IC50. Turning to GSSDFQVHFLK, the pIC50 in the assay with HLA-A*11:01 [11] is 7.18; in the assay with HLA-B*53:01, at most 4.70; with HLA-A*31:01 [12], 5.98; with HLA-B*35:01, at most 4.70; with HLA-B*37:01, at most 4.70; with HLA-B*18:01 [13], at most 4.70. Moreover, the pIC50 in the assay with HLA-B*44:03 was at most 4.70; in the assay with HLA-B*58:01 [14], at most 4.70; in the assay with HLA-A*29:02, 5.84; with HLA-B*14:02, at most 4.70; in the assay with HLA-A*24:02, at most 4.70; with HLA-B*51:01 [15], at most 4.70. For the same sequence, the pIC50 with HLA-A*68:02 is at most 4.70; in the assay with HLA-B*07:02 [16] it was at most 4.70; with HLA-A*01:01 [17], at most 4.70; with HLA-A*02:01 [18], at most 4.70; with HLA-A*03:01 [19], 5.99; with HLA-B*40:02 it was 5.34. Moreover, the pIC50 with HLA-A*25:01 and with HLA-B*08:01 [20] was at most 4.70 each time.

Regarding KVADVDLAVPV, the pIC50 is at most 4.70 in the assay with HLA-A*11:01 [11]; at most 4.70 in the assay with HLA-B*53:01; at most 4.70 in the assay with HLA-A*31:01 [12]; at most 4.70 in the assay with HLA-B*35:01; 6.04 with HLA-B*37:01; at most 4.70 in the assay with HLA-B*18:01 [13]. The pIC50 in the assay with HLA-B*44:03, in the assay with HLA-B*58:01 [14], in the assay with HLA-A*29:02, with HLA-B*14:02, with HLA-A*24:02 and with HLA-B*51:01 [15] was at most 4.70 in each case. For the same sequence, the pIC50 with HLA-A*68:02 is 7.61; with HLA-B*07:02 [16], at most 4.70; in the assay with HLA-A*01:01 [17], at most 4.70; in the assay with HLA-A*02:01 [18], 7.71; with HLA-A*03:01 [19] it was at most 4.70; with HLA-B*40:02, 6.13. Further, the pIC50 with HLA-A*25:01 and with HLA-B*08:01 [20] was at most 4.70 throughout.
